Test results taken from patent publication US7985736B2, “High throughput screen utilizing newly discovered intramolecular neuronal calcium channel interactions to discover new analgesics” (The John Hopkins University, priority 2004, dated 2011).
Ends that are not written are not given here.

What was measured:
I-IIB-YFP = target: T1, I-IIB-YFP (Homo sapiens, UniProt Q00975); assay: Live-cell FRET two-hybrid assay versus I-IIB-YFP in HEK293 cells; format: binding; conditions: for Kd,EFF / affinity for I-IIB (FRET), in words: relative dissociation constant, HEK293 cells; for FRmax: 1:1 binding-model fit, CFP-tagged peptide versus I-IIB-YFP
T1 construct: I-IIB residues, 357-482; expressed in transfected cells; host or cells: HEK293
Description: To confirm preferential interaction of NTB with I-IIB a live-cell FRET two-hybrid assay was used (Erickson et al., 2003), in which NTB, NTC, I-IIB, and I-IIC were fused to either CFP or YFP, and the resulting fusion constructs expressed pair-wise in mammalian HEK293 cells. Given a Forster distance of ˜50 Å for the CFP/YFP pair (Patterson et al., 2000), the presence of FRET in individual cells would give a strong indication of interpeptide binding in the mammalian intracellular milieu. This indication is generally characterized by a low false-positive rate (Erickson et al., 2003), so that FRET assays provide a useful complement to yeast two-hybrid assays (Allen et al., 1995). […] SCFP (the signal derived from an image obtained with the CFP filter cube) is selective for CFP fluorescence and thereby gives an optical measure of NTB-CFP expression. Analogously, the SYFP signal, derived from preferential excitation and detection of YFP, estimates I-IIB-YFP levels. Finally, the SFRET signal reflects I-IIB-YFP fluorescence stimulated by FRET transfer from NTB-CFP, as well as secondary cross-talk signals. These three signals can be incorporated within a three-cube FRET algorithm to determine the strength of FRET interaction (“FRET ratio,” FR), independently of cross-talk (Erickson et al., 2001). FR adopts a value of unity in the absence of FRET and grows linearly with increasing FRET efficiency (Erickson et al., 2003). FR values for many individual cells are plotted as circles in FIG. 2Eb, with numerous determinations clearly greater than unity. Alternatively, FR values specified by a YFP-photobleaching methodology were also elevated above unity (triangles) (Bastiaens and Jovin, 1996). […] Consistent with yeast two-hybrid assays, then, FRET assays confirmed a selective propensity for NTB and I-IIB segments to associate.
Human m2 muscarinic acetylcholine receptor (AF498916) was engineered to reduce desensitization (Pals-Rylaarsdam and Hosey, 1997). QuikChange (Stratagene, La Jolla, Calif.) introduced cluster mutations, yielding m2R: residues 286-290 (STSVS/AAAVA), residues 307-311 (TVSTS/AVAAA). For FRET assays, base templates were ECFP/EYFP-tagged calmodulin constructs in pcDNA3 (Invitrogen, Carlsbad, Calif.), as described (Erickson et al., 2001). PCR-amplified channel segments or G proteins were substituted for calmodulin via upstream EcoRI and downstream NheI sites, creating in-frame fusions with fluorophore (ECFP/EYFP C-terminal to test molecules). NTC residues, 1-53; I-IIB residues, 357-482; and I-IIC residues, 436-554.
Experiments were performed mostly as previously described (Erickson et al., 2001; Erickson et al., 2003). Briefly, the FRET Ratio (FR) is the fractional increase in YFP emission due to FRET. […] For donor-dequenching analysis, EEFF is calculated as EEFF=^1−CFPpre/CFPpost, where CFPpre and CFPpost are the CFP emissions before/after 3 min YFP photobleaching. FR is determined by FR=(EEFF/[EYFP/ECFP])+1, where EYFP/ECFP is ratio of YFP and CFP molar extinction coefficients through 440 nm excitation bandpass of FRET cube (0.0574). For binding model analysis, Kd,EFF is the effective dissociation constant, related to actual Kd via filter/microscope optical characteristics. […]
Experiments were performed as described previously for the most part (Erickson et al., 2001; Erickson et al., 2003). Specifically, for quantitative analysis, all fluorescence from single cells were isolated through a pinhole in the image plane, and detected by photo-multiplier tube. In all three-cube FRET experiments, CFP levels were below a threshold where spurious, concentration-dependent FRET became significant (Stratton et al., 2004). Similarly, for donor-dequenching experiments, YFP levels were below an analogous threshold. […]

I-II loop of α1B (I-IIB) = target: T2, I-II loop of α1B (I-IIB) (Homo sapiens, UniProt Q00975); assay: Yeast two-hybrid assay, NT peptides versus I-IIB; format: binding; conditions: NT segment in pGBKT7, I-IIB in pGADT7
T2 construct: I-IIB(357-482)-pGADT7 & lam-pGBKT7; expressed in transfected cells; host or cells: AH109 yeast
Description: (§1) For yeast two-hybrid assays, a PCR fragment encoding one partner was fused, in-frame, with the GAL4 DNA binding domain (BD) in pGBKT7 (Clontech, Palo Alto, Calif.). The other element was fused, in-frame, with the GAL4 activation domain (AD) in pGADT7. For specific residues, see Supplemental Data (section 2). For electrophysiology, NT peptides lacking fluorophore tag were PCR amplified and cloned in pcDNA3. NTB peptide residues, 1-95; NTC residues, […]. Throughout, all segments subject to PCR or QuikChange were verified in their entirety by sequencing.
(§2) The Matchmaker GAL4 Two-Hybrid System 3 was used (Clontech, Palo Alto, Calif.). AH109 yeast were transformed with pGBKT7/pGADT7-based constructs (Yeastmaker Yeast Transformation System 2 kit, Clontech). After 5-8 days, growth on -leucine/-trytophan plates confirmed transformation of both plasmids. If partners interact, GAL4 BD/AD would complex, activating reporter genes (HIS3, ADE2, lacZ, and MEL1), for which assays are detailed in the Supplemental Data (section 2.1).
(§3) As a ‘medium’ stringency assay, expression of the lacZ gene was tested for encoding β-galactosidase, performing a filter lift with application of blue chromogenic substrate (Clontech-Laboratories, 1999). After the filter lift, original plates were re-grown for 2-3 days at 30° C. Filter paper was then used to replicate colonies onto a high stringency plate (-adenine/-histidine/-leucine/-trytophan). These plates were then incubated at 30° C. for 5-8 days. Survival on high stringency plates indicates production of both adenine and histidine, from transcription of the ADE2 and HIS3 genes, respectively. The percentage of colonies that turned blue in the filter lift assay, along with the percentage of colonies that survived on high stringency plates, was recorded for each pairing. Experiments were repeated at least three times. False positives were controlled for by testing each segment in pGBKT7 against empty pGADT7, and each segment in pGADT7 against lamin C in pGBKT7 (lamin C interacts with few proteins). Average sum of these backgrounds was subtracted from B to produce the net interaction parameter ΔB (FIG. 2).

[1] = target: T3, N-type (α1B) Ca2+ channels (Homo sapiens, UniProt Q00975); assay: Whole-cell G/Q analysis and prepulse facilitation of recombinant N-type channels coexpressed with peptide in HEK293 cells; format: cell-based; conditions: for Effect on G/Q slope (Gmax-Qmax relation), with Gβγ: peptide coexpressed with channels and Gβγ, Gmax after 100 mV prepulse
T3 construct: transferred by EcoRI and Bgl II sites into the full-length α1B construct; expressed in transfected cells; host or cells: HEK293
Description: FIG. 3A illustrates an approach for N-type channels without Gβγ coexpression. Exemplar currents activated quickly and were barely facilitated by strong prepulse depolarization (FIG. 3A, left). The slight residual prepulse facilitation reflects basal endogenous Gβγ activation. To estimate open probability, two intermediary parameters were specified. First, to gauge the number of channels in a cell (Nchannel), the channel gating current at the reversal potential for ionic current were isolated (FIG. 3A, middle left) (Jones et al., 1999). The area under this current yields the maximal gating charge Qmax, where Qmax=Nchannel×qmax, and qmax is the maximal gating charge per channel. Second, Gmax for a given cell, the maximal ionic current conductance determined as the slope of the peak current-voltage relation at depolarized potentials were determined (FIG. 3A, middle right, line). Here and throughout, current-voltage relations were determined after a 100 mV prepulse, which transiently relieves all G protein inhibition (Colecraft et al., 2000), thus eliminating these inhibitory effects in the estimate of Gmax. Accordingly, Gmax=Nchannel×Po,max×g, where Po,max is the maximal channel open probability at saturating de-polarization, and g is the conductance of a single open channel. In combination, then, a plot of Gmax versus Qmax for multiple cells ([…]) would describe a linear relation with slope equal to Po,max×g/qmax. Because g and qmax are unchanged by G protein modulation (Colecraft et al., 2001; Jones et al., 1997; Patil et al., 1996), this slope (G/Q=0.44±0.03 nS/fC) is proportional to Po,max . . . FIG. 3B documents the supporting results for N-type channels coexpressed with Gβγ. Gmax determined after prepulse de-polarization, when plotted against Qmax, specifies an identical slope to that without Gβγ (FIG. 3B, right, G/Q=0.43±0.04 nS/fC). […] Free NTB peptide with α1B channels. Initially, an NTB-CFP peptide was employed to visually confirm expression was coexpressed. […] By contrast, coexpressing channels with NTB-CFP and Gβγ produced remarkable effects (FIG. 3D). […] More telling were small ionic current amplitudes despite gating current magnitudes on par with controls (FIG. 3D, middle panels). Consequently, there was a significant ^w6-fold depression of the Gmax-Qmax plot (FIG. 3D, right). If NTB-CFP were simply chelating Gβγ (FIG. 2C), the G/Q slope would be unchanged from control. Instead, the suppression of G/Q indicates constitutive inhibition of channel opening.
Cells were transiently transfected and cultured in 10 cm plates (Brody et al., 1997). For 2+Ca^2+ channels, 8 μg was used of each of cDNAs of the desired a1, rat brain β2a (Perez-Reyes et al., 1992), and rat brain a^28 (Tomlinson et al., 1993) subunits; along with 2 μg T-antigen cDNA. N-type α1B, human origin (NM000718); L-type α1C, rabbit (Wei et al., 1991) (X15539). Gβγ coexpressed with 4 μg each of Gβ1 (Sugimoto et al., 1985) and Gγ2 (Gautam et al., 1990). For coexpression of N-terminal peptides, channel subunit cDNA reduced to 6 μg, while adding 14 μg peptide cDNA. For receptor experiments, 0.5 μg cDNA for m2R (below) applied with other cDNAs.
Whole-cell current records were made with Axopatch 200B (Axon Instruments, Calif.), 1-3 days posttransfection. Pipets, 1.5-3 MΩ before 60-75% series resistance compensation. Internal solution: 135 mM CsMeSO4, 5 mM CsCl, 10 mM EGTA, 10 mM HEPES, 1 mM MgCl2, and 4 mM MgATP. External solution: 150 mM TEAMeSO4, 10 mM HEPES, 2 mM CaCl2, and 1 mM MgCl2. During constitutive inhibition (or as noted for some chimeras), 20 mM BaCl2 was substituted for 2 mM CaCl2, and the resulting solution was diluted 1.08×. To compare across external solutions, a conversion factor of 3.18 was used. Currents and conductances with 20 mM Ba^2+ were thus scaled×1/3.18 to facilitate uniform comparison of values, as if all data had been collected with 2 mM Ca^2+. When applied, conversion is denoted by asterisk (*). […]

Gβ1 = target: T4, Gβ1 (Bos taurus, UniProt P62871); assay: Yeast two-hybrid assay, channel fragments versus Gβ1; format: binding; conditions: Gβ1 in pGADT7, channel fragment in pGBKT7
T4 construct: expressed in transfected cells; host or cells: AH109 yeast
Description: as §1, §2
as §3, with “Average sum of these backgrounds was subtracted from B to produce the net interaction parameter ΔB (FIG. 2).” left out

T1 sequence (Q00975 357-482): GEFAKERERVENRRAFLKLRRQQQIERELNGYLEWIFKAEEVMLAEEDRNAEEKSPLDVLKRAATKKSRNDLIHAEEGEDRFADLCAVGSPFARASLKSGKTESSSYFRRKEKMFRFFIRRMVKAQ
T3 sequence (Q00975 whole entry, other chains not shown): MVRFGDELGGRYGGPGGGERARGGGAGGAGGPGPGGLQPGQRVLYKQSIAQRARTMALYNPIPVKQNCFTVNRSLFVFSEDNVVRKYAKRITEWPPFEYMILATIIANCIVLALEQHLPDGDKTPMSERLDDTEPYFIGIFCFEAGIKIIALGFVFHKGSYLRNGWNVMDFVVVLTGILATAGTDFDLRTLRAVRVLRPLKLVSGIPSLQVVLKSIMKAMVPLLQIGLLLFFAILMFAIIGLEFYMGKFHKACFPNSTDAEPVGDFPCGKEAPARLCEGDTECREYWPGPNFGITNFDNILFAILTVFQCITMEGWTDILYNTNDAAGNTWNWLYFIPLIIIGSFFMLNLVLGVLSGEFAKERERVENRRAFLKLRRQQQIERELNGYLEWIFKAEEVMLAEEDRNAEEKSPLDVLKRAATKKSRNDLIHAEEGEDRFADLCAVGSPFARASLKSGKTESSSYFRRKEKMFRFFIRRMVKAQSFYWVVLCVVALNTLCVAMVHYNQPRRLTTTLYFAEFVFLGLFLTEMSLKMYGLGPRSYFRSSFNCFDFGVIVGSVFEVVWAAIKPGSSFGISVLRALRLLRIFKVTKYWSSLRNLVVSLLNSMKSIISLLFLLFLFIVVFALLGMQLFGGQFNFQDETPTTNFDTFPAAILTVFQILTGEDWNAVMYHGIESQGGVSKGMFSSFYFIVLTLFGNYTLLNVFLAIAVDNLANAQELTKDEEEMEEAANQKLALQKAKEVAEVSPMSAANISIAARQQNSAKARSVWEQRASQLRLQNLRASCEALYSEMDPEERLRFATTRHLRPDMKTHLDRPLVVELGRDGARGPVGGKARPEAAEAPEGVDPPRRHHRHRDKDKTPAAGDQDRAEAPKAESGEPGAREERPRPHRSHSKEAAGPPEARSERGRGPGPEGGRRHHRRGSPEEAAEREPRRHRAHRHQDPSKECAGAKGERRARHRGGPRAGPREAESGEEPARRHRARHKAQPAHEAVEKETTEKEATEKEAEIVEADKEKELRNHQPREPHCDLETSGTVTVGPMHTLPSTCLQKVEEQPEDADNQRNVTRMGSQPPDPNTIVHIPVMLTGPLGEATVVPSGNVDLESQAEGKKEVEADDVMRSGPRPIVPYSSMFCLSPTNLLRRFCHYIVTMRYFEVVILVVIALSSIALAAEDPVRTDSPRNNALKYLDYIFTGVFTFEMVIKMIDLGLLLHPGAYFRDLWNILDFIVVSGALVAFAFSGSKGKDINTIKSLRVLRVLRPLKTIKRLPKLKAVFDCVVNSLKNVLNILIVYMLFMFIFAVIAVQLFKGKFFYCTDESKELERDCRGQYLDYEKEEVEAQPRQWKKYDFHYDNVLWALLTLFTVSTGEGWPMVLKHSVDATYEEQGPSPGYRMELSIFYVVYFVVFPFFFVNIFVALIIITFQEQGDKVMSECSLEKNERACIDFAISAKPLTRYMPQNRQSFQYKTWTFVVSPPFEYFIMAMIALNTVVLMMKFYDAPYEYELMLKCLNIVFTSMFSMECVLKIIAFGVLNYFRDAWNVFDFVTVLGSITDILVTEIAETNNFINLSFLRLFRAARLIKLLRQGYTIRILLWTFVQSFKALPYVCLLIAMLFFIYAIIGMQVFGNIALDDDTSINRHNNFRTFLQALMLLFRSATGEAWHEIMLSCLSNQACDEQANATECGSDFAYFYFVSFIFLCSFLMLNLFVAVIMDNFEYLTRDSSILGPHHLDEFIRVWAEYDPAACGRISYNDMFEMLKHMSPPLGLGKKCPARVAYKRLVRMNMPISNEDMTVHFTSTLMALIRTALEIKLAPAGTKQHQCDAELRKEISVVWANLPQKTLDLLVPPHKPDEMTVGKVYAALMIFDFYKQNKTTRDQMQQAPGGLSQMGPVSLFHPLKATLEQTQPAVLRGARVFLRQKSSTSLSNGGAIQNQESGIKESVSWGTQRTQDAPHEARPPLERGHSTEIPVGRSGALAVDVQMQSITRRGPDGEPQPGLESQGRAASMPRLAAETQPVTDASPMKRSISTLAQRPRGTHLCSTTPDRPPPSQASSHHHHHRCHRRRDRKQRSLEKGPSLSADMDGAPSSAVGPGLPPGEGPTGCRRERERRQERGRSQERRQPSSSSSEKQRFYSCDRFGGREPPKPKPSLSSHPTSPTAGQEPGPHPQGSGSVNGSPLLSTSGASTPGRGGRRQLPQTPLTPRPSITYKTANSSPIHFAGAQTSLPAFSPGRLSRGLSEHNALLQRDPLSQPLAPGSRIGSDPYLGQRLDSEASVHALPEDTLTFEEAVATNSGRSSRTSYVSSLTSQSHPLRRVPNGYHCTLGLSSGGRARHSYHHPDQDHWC
T3 sequence (P54290 25-944 partner limits assumed, other chains not shown): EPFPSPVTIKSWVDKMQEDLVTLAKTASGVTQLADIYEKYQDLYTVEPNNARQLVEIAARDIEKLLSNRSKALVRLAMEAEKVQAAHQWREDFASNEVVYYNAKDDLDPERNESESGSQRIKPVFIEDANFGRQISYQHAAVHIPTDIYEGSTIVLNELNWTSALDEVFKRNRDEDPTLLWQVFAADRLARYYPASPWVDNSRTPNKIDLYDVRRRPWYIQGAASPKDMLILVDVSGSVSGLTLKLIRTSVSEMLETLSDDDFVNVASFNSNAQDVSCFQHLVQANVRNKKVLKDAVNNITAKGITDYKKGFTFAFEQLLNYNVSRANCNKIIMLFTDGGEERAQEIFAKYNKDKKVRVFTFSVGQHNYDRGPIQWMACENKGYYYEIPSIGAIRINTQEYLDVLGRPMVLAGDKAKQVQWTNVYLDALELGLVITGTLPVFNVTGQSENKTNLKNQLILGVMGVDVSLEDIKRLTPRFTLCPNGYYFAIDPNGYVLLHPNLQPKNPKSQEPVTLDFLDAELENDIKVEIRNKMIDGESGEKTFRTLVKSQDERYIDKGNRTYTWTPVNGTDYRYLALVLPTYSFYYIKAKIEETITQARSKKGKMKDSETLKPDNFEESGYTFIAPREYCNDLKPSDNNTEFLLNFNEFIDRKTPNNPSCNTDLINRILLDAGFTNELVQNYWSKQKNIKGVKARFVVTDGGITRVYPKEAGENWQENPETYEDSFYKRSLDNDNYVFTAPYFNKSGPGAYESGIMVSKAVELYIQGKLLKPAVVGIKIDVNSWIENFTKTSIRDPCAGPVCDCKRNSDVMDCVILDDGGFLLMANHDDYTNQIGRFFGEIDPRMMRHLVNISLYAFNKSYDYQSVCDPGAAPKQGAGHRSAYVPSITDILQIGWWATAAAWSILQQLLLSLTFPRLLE
T3 sequence (P54290 945-1091 partner limits assumed, other chains not shown): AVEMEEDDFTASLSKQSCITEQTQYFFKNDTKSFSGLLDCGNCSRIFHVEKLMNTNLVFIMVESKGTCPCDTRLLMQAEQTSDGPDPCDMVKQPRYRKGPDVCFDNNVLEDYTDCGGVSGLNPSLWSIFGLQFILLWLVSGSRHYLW
T2 sequence (Q00975 357-482): as the sequence (Q00975 357-482) above
T4 sequence (P62871 whole entry, the tested form may be a part): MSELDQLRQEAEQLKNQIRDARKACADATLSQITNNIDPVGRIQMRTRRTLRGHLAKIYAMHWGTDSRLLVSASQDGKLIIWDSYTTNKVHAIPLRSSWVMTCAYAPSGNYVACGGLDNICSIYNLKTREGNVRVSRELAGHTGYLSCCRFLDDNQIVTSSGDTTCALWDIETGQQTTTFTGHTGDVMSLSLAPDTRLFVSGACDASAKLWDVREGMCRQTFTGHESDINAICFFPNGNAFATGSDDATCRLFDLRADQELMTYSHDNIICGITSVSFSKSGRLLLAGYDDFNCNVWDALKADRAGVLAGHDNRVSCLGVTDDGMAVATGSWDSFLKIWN

NTB (1-44)—CFP: NTB (1-44) fused to CFP (MVRFGDELGGRYGGPGGGERARGGGAGGAGGPGPGGLQPGQRVL; also: fused to CFP)
Kd,EFF / affinity for I-IIB (FRET), in words (I-IIB-YFP): no detectable association

NTB (45-95): NTB subdomain, residues 45-95 (SEQ ID NO.: 2) (KQSIAQRARTMALYNPIPVKQNCFTVNRSLFVFSEDNVVRKYAKRITEWP; listed as Homo sapiens)
Interaction with I-IIB (yeast two-hybrid, ΔB) (I-II loop of α1B (I-IIB)): Robust ΔB values | Effect on G/Q slope (Gmax-Qmax relation), with Gβγ [1]: depressed Gmax-Qmax relations to the same extent as did full NTB

NTB (56-95)—CFP: NTB (56-95) fused to CFP (MALYNPIPVKQNCFTVNRSLFVFSEDNVVRKYAKRITEWP; also: fused to CFP)
FRmax (I-IIB-YFP): 2.44 | Kd,EFF / affinity for I-IIB (FRET), in words (I-IIB-YFP): affinity equivalent to that of full NTB

B1: NTB (Δ45-55): NTB peptide lacking residues 45-55 (protein)
chain: MVRFGDELGGRYGGPGGGERARGGGAGGAGGPGPGGLQPGQRVLMALYNPIPVKQNCFTVNRSLFVFSEDNVVRKYAKRITEWP
modifications: left off: small tags and cut ends
Interaction with I-IIB (yeast two-hybrid, ΔB) (I-II loop of α1B (I-IIB)): partially attenuated association | Effect on G/Q slope (Gmax-Qmax relation), with Gβγ [1]: inter-mediate inhibition

B2: NTB-CFP: NTB peptide fused to CFP (protein)
chain: MVRFGDELGGRYGGPGGGERARGGGAGGAGGPGPGGLQPGQRVLYKQSIAQRARTMALYNPIPVKQNCFTVNRSLFVFSEDNVVRKYAKRITEWP
modifications: left off: large carriers
FRmax (I-IIB-YFP): 3.66 | Kd,EFF / affinity for I-IIB (FRET), in words (I-IIB-YFP): comparable to that for an apoCaM/IQ segment interaction | Effect on G/Q slope and currents, without Gβγ ([1]; peptide coexpressed with channels, absent Gβγ): no differences from control

B3: NTB [1-55]: residues 1-55 of NTB (protein)
chain: MKLLSSIEQACDICRLKKLKCSKEKPKCAKCLKNNWECRYSPKTKRSPLTRAHLTEVESRLERLEQLFLLIFPREDLDMILKMDSLQDIKALLTGLFVQDNVNKDAVTDRLASVETDMPLTLRQHRISATSSSEESSNKGQRQLTVSMVRFGDELGGRYGGPGGGERARGGGAGGAGGPGPGGLQPGQRVLYKQSIAQRART
Interaction with Gβ1 (yeast two-hybrid) (Gβ1): interacted with Gβ1
